Where no end group is shown, it is not given here. [ ]: non-standard residue; d: D form. SeMet = C[Se]CC[C@H](N)C(=O)O
T1: CED-4 apoptosome (full-length wild-type CED-4) (C. elegans, UniProt P30429 1-549)
T1 sequence (looked up): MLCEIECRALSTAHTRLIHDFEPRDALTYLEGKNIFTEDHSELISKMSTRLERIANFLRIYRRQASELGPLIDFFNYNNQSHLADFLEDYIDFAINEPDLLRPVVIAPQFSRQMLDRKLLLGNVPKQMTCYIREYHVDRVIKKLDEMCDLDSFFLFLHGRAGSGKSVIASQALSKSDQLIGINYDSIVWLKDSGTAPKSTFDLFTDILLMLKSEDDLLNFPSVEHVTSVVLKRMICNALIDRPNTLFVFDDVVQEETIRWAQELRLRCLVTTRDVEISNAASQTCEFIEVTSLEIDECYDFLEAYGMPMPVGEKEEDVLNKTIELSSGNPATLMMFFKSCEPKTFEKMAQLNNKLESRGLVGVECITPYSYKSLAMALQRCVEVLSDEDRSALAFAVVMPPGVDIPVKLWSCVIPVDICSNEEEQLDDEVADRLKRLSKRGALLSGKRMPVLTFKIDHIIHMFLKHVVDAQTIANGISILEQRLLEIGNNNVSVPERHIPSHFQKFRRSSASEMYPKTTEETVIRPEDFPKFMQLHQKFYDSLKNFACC


Experiments:
[1] = molecular target: T1, CED-4 apoptosome (full-length wild-type …); experiment: SEC
[2] = molecular target: T1, CED-4 apoptosome (full-length wild-type …); experiment: crystal structure
crystal structure = molecular target: the molecule itself; experiment: crystal structure

| Binder | binding result [1] | binding result [2] | other results |
| --- | --- | --- | --- |
| two-chain CED-3 (residues 198–374, 389–503, and C358A) (domain or fragment, C. elegans) chain 1: NRSFSKASGPTQYIFHEEDMNFVDAPTISRVFDEKTMYRNFSSPRGMCLIINNEHFEQMPTRNGTKADKDNLTNLFRCMGYTVICKDNLTGRGMLLTIRDFAKHESHGDSAILVILSHGEENVIIGVDDIPISTHEIYDLLNAANAPRLANKPKIVFVQAARGERRDNGFPVLDSVD chain 2: GPLFNFLGCVRPQVQQVWRKKPSQADILIAYATTAQYVSWRNSARGSWFIQAVCEVFSTHAKDMDVVELLTEVNKKVACGFQTSQGSNILKQMPEMTSRLLKKFYFWPEARNSAV | binds | – | – |
| GPLFNFLGCVRPQVQQVWRKK (peptide, UniProt P42573 389-409, looked up) [CED-3 L2′ loop fragment (residues 389–409)] | – | – | stoichiometry N [2]: 8 L2′ loop fragments per CED-4 apoptosome |
| GP[SeMet]FNF[SeMet]GCVRPQVQQVWRKK (peptide, UniProt P42573 389-409, looked up) [CED-3 L2′ loop fragment (residues 389–409) with Leu391 and Leu395 replaced by selenomethionine] | – | binds | – |
| GP[SeMet]FNFLGCVRPQVQQVWRKK (peptide, UniProt P42573 389-409, looked up) [CED-3 L2′ loop fragment (residues 389–409) with Leu391 replaced by selenomethionine] | – | binds | – |
| GPLFNF[SeMet]GCVRPQVQQVWRKK (peptide, UniProt P42573 389-409, looked up) [CED-3 L2′ loop fragment (residues 389–409) with Leu395 replaced by selenomethionine] | – | binds | – |
| two-chain caspase domain of CED-3 (residues 198–374, 389–503, and C358S) (domain or fragment, C. elegans) chain 1: NRSFSKASGPTQYIFHEEDMNFVDAPTISRVFDEKTMYRNFSSPRGMCLIINNEHFEQMPTRNGTKADKDNLTNLFRCMGYTVICKDNLTGRGMLLTIRDFAKHESHGDSAILVILSHGEENVIIGVDDIPISTHEIYDLLNAANAPRLANKPKIVFVQASRGERRDNGFPVLDSVD chain 2: GPLFNFLGCVRPQVQQVWRKKPSQADILIAYATTAQYVSWRNSARGSWFIQAVCEVFSTHAKDMDVVELLTEVNKKVACGFQTSQGSNILKQMPEMTSRLLKKFYFWPEARNSAV | – | – | stoichiometry N (crystal structure): 2 |
| two-chain CED-3 with partial deletion of the L2 loop (residues 365–374) (domain or fragment, C. elegans) chain 1: NRSFSKASGPTQYIFHEEDMNFVDAPTISRVFDEKTMYRNFSSPRGMCLIINNEHFEQMPTRNGTKADKDNLTNLFRCMGYTVICKDNLTGRGMLLTIRDFAKHESHGDSAILVILSHGEENVIIGVDDIPISTHEIYDLLNAANAPRLANKPKIVFVQAARGERRD chain 2: GPLFNFLGCVRPQVQQVWRKKPSQADILIAYATTAQYVSWRNSARGSWFIQAVCEVFSTHAKDMDVVELLTEVNKKVACGFQTSQGSNILKQMPEMTSRLLKKFYFWPEARNSAV | binds | – | – |
| CED-3 (residues 198–503 and C358S) (domain or fragment, C. elegans, UniProt P42573 198-503, looked up) NRSFSKASGPTQYIFHEEDMNFVDAPTISRVFDEKTMYRNFSSPRGMCLIINNEHFEQMPTRNGTKADKDNLTNLFRCMGYTVICKDNLTGRGMLLTIRDFAKHESHGDSAILVILSHGEENVIIGVDDIPISTHEIYDLLNAANAPRLANKPKIVFVQASRGERRDNGFPVLDSVDGVPAFLRRGWDNRDGPLFNFLGCVRPQVQQVWRKKPSQADILIAYATTAQYVSWRNSARGSWFIQAVCEVFSTHAKDMDVVELLTEVNKKVACGFQTSQGSNILKQMPEMTSRLLKKFYFWPEARNSAV | binds | – | – |

Reference: paper PMC3792479 (Genes & Development, 2013)
